Results: US20200354457A1 (Hoffmann-La Roche, published 2020)
Where a chain is given by its changes, count along the chain named. Where “and” joins values, the source holds several entries; their conditions need not be identical. Equal entries are not always repeated.

T1: murine LAG3-Fc antigen (R&D Systems, 3328-L3-050) (murine, UniProt Q61790 24-442)
T1 construct: Bought reagent
T1 sequence (looked up): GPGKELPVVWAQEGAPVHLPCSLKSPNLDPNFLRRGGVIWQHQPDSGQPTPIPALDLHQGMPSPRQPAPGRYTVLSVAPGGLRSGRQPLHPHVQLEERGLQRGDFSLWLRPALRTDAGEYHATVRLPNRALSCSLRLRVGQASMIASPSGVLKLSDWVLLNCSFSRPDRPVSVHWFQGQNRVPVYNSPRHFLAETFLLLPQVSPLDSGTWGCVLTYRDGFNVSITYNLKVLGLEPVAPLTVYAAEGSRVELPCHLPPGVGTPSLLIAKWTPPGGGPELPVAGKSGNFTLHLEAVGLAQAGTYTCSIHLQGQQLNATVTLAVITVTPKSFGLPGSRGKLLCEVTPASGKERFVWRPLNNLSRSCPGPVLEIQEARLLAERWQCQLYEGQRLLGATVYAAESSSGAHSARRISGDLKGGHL

T2: human LAG3 on recombinant CHO cells (human, UniProt P18627 23-525)
T2 construct: whole, on cells; also called Lag3 cells; recombinant CHO cells expressing Lag3
T2 sequence (looked up): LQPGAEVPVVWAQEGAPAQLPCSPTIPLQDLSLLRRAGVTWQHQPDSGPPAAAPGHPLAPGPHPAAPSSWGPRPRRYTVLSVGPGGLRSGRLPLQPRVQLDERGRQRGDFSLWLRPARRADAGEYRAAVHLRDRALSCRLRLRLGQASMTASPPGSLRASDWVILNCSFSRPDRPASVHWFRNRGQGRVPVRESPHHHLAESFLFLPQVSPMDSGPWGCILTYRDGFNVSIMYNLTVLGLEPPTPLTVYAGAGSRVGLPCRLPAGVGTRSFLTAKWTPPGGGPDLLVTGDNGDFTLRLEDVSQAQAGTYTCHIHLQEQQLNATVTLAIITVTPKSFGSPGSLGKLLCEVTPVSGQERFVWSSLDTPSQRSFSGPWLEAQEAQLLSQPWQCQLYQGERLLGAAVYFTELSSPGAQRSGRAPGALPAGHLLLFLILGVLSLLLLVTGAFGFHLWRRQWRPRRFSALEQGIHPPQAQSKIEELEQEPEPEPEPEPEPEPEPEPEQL

T3: recombinant human LAG3 Fc Chimera Protein (R&D Systems, 2319-L3) (human, UniProt P18627 23-450)
T3 construct: Bought reagent
T3 sequence (looked up): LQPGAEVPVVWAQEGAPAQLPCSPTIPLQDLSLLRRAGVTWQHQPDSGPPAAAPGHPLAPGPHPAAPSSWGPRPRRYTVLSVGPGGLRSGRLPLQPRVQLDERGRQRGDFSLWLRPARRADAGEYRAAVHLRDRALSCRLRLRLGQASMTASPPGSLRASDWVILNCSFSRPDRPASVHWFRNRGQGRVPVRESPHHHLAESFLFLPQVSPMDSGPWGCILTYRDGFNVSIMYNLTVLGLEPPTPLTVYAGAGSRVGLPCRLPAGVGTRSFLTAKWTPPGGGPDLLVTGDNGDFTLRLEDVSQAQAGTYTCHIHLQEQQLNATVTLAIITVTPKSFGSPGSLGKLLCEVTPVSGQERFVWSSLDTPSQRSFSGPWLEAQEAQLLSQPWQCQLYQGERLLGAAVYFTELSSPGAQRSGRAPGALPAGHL

B1: bivalent 21B11 aVH-Fc (Fc fusion)
chain: EVQLVESGGGLVQPGGSLRLSCAASGFNIKDTCIGWVRRAPGKGTELVAEICQDIGYTRYADSVKGRFTISADTSKNTAYLQMNSLRAEDTAVYYCAADESVDNFKYWGQGTTVTVSSGGGGSGGGGSDKTHTCPPCPAPEAAGGPSVFLFPPKPKDTLMISRTPEVTCVVVDVSHEDPEVKFNWYVDGVEVHNAKTKPREEQYNSTYRVVSVLTVLHQDWLNGKEYKCKVSNKALGAPIEKTISKAKGQPREPQVYTLPPSRDELTKNQVSLTCLVKGFYPSDIAVEWESNGQPENNYKTTPPVLDSDGSFFLYSKLTVDKSRWQQGNVFSCSVMHEALHNHYTQKSLSLSPGK
B2: bivalent P21A03 aVH-Fc (Fc fusion)
chain: B1 chain with Q53E, D99N, S101H, V102S, D103V, N104G, K106N
B3: bivalent P10C3 aVH-Fc (Fc fusion)
chain: B1 chain with Q53T, I55A, D99S, V102P, D103S, N104G, K106R
B4: bivalent P9G1 aVH-Fc (Fc fusion)
chain: B1 chain with A98G, D99E, S101G, V102A, D103T
B5: bivalent P10D1 aVH-Fc (Fc fusion)
chain: B1 chain with N28S, G35A, Q53E, D99K, S101A, V102G, D103V, N104G, K106D
B6: bivalent 17D7 aVH-Fc (Fc fusion)
chain: B1 chain with Q53T, D99G, S101G, V102S, D103S, N104G, K106H
B7: bivalent 19G3 aVH-Fc (Fc fusion)
chain: B1 chain with D31Y, T32Q, Q53S, D54Y, I55D, D99E, D103E, N104G, K106I
B8: bivalent 9B4 aVH-Fc (Fc fusion)
chain: B1 chain with D99V, S101V, V102A, D103E, N104Y, K106E

These binders were tested against T4, Lag3 on Lag3+ NFAT Jurkat effector cells (Promega #CS194801) (assay: cell-based or functional assay).

Binder | EC50 of restoration of the NFAT luciferase signal (NFAT Lag3 reporter assay: Lag3+ Jurkat, Raji cells, SED) [µg/mL]
B1 | 0.6
B2 | 3.31
B3 | 3.9
B4 | 0.65
B5 | 4.14

Target: T4, Lag3 on Lag3+ NFAT Jurkat effector …
Assay: cell-based or functional assay
Remark: another data set of the same source

Binder | IC50 for near-complete reduction of luciferase activity (modified NFAT Lag3 reporter assay, Lag3+ Jurkat cells alone) [µg/mL]
B1 | 0.064
B2 | 0.078
B4 | 0.038
B5 | 0.104

What follows are binders tested against T1, murine LAG3-Fc antigen (R&D Systems, …) (assay: ELISA using murine LAG3-Fc antigen).

Binder | binding result
B1 | no binding
B2 | no binding
B6 | no binding
B3 | no binding
B7 | no binding
B4 | no binding
B5 | no binding
B8 | no binding

The binders below were run against T2, human LAG3 on recombinant CHO cells (assay: cell ELISA on CHO cells expressing human LAG3;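 further: bivalent Fc-format binders titrated in threefold steps from 6 µg/mL, incubated with the cells 2 h at 4 °C, bound antibody detected by HRP-coupled anti-human IgG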).

Binder | EC50 | OD max [OD]
B1 | 0.0428 µg/mL and 0.6 nM | 1.3
B2 | 0.0401 µg/mL and 0.5 nM | 1.2
B6 | 0.0354 µg/mL and 0.5 nM | 1.4
B3 | 0.0735 µg/mL and 1 nM | 1.2
B7 | 0.0636 µg/mL and 0.8 nM | 1.3
B4 | 0.0173 µg/mL and 0.2 nM | 1.2
B5 | 0.029 µg/mL and 0.4 nM | 1.2
B8 | 0.0288 µg/mL and 0.4 nM | 1.3

The binders below were run against T3, recombinant human LAG3 Fc Chimera … (assay: ELISA, plate coated with human LAG3 Fc chimera).

Binder | EC50 | OD max [OD]
B1 | 0.0157 µg/mL and 0.2 nM | 1.1
B2 | 0.0901 µg/mL and 1.2 nM | 1.8
B6 | 0.0145 µg/mL and 0.2 nM | 1.2
B3 | 0.123 µg/mL and 1.6 nM | 0.8
B7 | 0.0342 µg/mL and 0.5 nM | 1
B4 | 0.0132 µg/mL and 0.2 nM | 1.9
B5 | 0.113 µg/mL and 1.5 nM | 0.9
B8 | 0.0194 µg/mL and 0.3 nM | 1.2

Each binder was assayed against T5, Lag3 on cynomolgus PBMC/T cells (cynomolgus) (assay: flow cytometry, non-activated cynomolgus PBMC, 10 µg/ml).
T5 construct: whole, on cells

Binder | Percentage of Lag3 positive cells [%]
B2 | 20.8
B7 | 17
B4 | 24.4
B5 | 16.9

Each binder was assayed against T5, Lag3 on cynomolgus PBMC/T cells (assay: flow cytometry, CD3/CD28-activated cynomolgus PBMC, 10 µg/ml).

Binder | Percentage of Lag3 positive cells [%]
B2 | 52.2
B7 | 54.3
B4 | 54.1
B5 | 61.7

Each binder was assayed against T6, cynomolgus LAG3 on transiently transfected HEK293F cells (cynomolgus) (assay: flow cytometry on HEK293F cells transfected with cyno LAG3, 10 µg/ml).
T6 construct: whole, on cells; also called cyno LAG3; cynomolgus Lag3-positive HEK cells

Binder | LAG3 positive cells (%) | Signal intensity (Geo Mean)
B1 | 78.9 | 2750
B6 | 63.6 | 1980
B7 | 80.3 | 2560
B8 | 68.8 | 2060

What follows are binders tested against T3, recombinant human LAG3 Fc Chimera … (assay: SPR (Biacore), aVH-Fc captured by anti-human Fc, human LAG-3 Fc chimera as analyte, 25 C).

Binder | koff [s⁻¹] | t1/2 [h]
B1 | 1.8e-05 | 1.78
B2 | 1e-05 | 19.3
B6 | 0.00018 | 1.1
B3 | 8.9e-05 | 2.17
B7 | 0.00029 | 0.672
B4 | 2e-05 | 9.82
B5 | 0.00011 | 1.7
B8 | 0.00019 | 1.02

The binders below were run against T7, soluble human Lag3-IgG1-Fc with biotinylated C-terminal Avi-tag (human, biotin on the C-terminal Avi-tag) (assay: A375 MHCII competition ELISA, biotinylated Lag3 250 ng/ml; competitor MHCII on A375 cells).
T7 construct: also called LAG3-Fc-avi; biotinylated LAG3-Fc antigen

Binder | IC50
B1 | 0.113 µg/mL and 1.5 nM
B2 | 0.0581 µg/mL and 0.8 nM
B6 | 0.104 µg/mL and 1.4 nM
B3 | 0.242 µg/mL and 3.2 nM
B7 | 0.224 µg/mL and 3 nM
B4 | 0.0408 µg/mL and 0.5 nM
B5 | 0.0933 µg/mL and 1.2 nM
B8 | 0.0762 µg/mL and 1 nM

These binders were tested against T7, soluble human Lag3-IgG1-Fc with … (assay: A375 MHCII competition ELISA at 3 µg/ml, biotinylated Lag3 250 ng/ml; competitor MHCII on A375 cells).

Binder | % Inhibition [%]
B1 | 96.7
B2 | 97.4
B6 | 91.7
B3 | 84.9
B7 | 91.9
B4 | 96.3
B5 | 93.4
B8 | 95.5
